According to the supplement of paper PMC10567573:

B1: YPEL3 (parent)
chain: SKPKTFQAYLDDCHRRYSCAHCRA

Variants of: B1
Assay: protein stability index of a GFP-peptide fusion (GPS, HEK-293T) (PSI 1-6); higher = more stable
Conditions: c terminus: a fixed tail appended
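Note: lentivirally expressed fusions sorted by FACS into six bins by GFP to DsRed ratio, PSI derived from sequencing read proportions per bin multiplied by bin number.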

Q: Which protein stability index does the source give for SKPKTVQAYLDDCHRRYSCAHCRA here?
A: 2.81

Q: With SKPKTFQAYLDDCHRRYSWAHCRA as the variant, how does the protein stability index read?
A: 1.66

Q: With SKPKTFQAYLDDCHRRYSYAHCRA as the variant, how does the protein stability index read?
A: 2.44

Q: Which protein stability index does the source give for SKPKTFQAYLDDCHRRYSPAHCRA here?
A: 2.85

Q: Which protein stability index does the source give for SKPKTFQAYLDDCHRRYSDAHCRA here?
A: 3.27

Q: With SKPKTFQAYLDDCHRRYSRAHCRA as the variant, how does the protein stability index read?
A: 2.04

Q: Which protein stability index does the source give for SKPKFFQAYLDDCHRRYSCAHCRA here?
A: 1.84

Q: With SKPKAFQAYLDDCHRRYSCAHCRA as the variant, how does the protein stability index read?
A: 2.46

Q: With SKPKLFQAYLDDCHRRYSCAHCRA as the variant, how does the protein stability index read?
A: 2.37

Q: For SKPKTFQAYPDDCHRRYSCAHCRA, which protein stability index is on record?
A: 2.79

Q: With SKPKTFQAYDDDCHRRYSCAHCRA as the variant, how does the protein stability index read?
A: 2.53

Q: Which protein stability index does the source give for SKPKTFQAYRDDCHRRYSCAHCRA here?
A: 2.62

Q: With SKPKTFQAYWDDCHRRYSCAHCRA as the variant, how does the protein stability index read?
A: 2.05

Q: Which protein stability index does the source give for SKPATFQAYLDDCHRRYSCAHCRA here?
A: 2.47

Q: With SKPYTFQAYLDDCHRRYSCAHCRA as the variant, how does the protein stability index read?
A: 2.04

Q: Which protein stability index does the source give for SKPRTFQAYLDDCHRRYSCAHCRA here?
A: 1.86

Q: For SKPHTFQAYLDDCHRRYSCAHCRA, which protein stability index is on record?
A: 2.59

Q: With SKPTTFQAYLDDCHRRYSCAHCRA as the variant, how does the protein stability index read?
A: 1.74

Q: With SKPKTFQAYLDDCSRRYSCAHCRA as the variant, how does the protein stability index read?
A: 2.06

Q: With SKPKTFQAYLDDCFRRYSCAHCRA as the variant, how does the protein stability index read?
A: 1.07

Q: Which protein stability index does the source give for SKPKTFQAYLDDCYRRYSCAHCRA here?
A: 1.56

Q: With SKPKTFQAYLDDCMRRYSCAHCRA as the variant, how does the protein stability index read?
A: 2.34

Q: Which protein stability index does the source give for SKPKTFQAYLDDCVRRYSCAHCRA here?
A: 2.15

Q: For SLPKTFQAYLDDCHRRYSCAHCRA, which protein stability index is on record?
A: 1.85

Q: For SMPKTFQAYLDDCHRRYSCAHCRA, which protein stability index is on record?
A: 1.7

Q: Which protein stability index does the source give for SSPKTFQAYLDDCHRRYSCAHCRA here?
A: 1.8

Q: Which protein stability index does the source give for SEPKTFQAYLDDCHRRYSCAHCRA here?
A: 1.63

Q: Which protein stability index does the source give for SAPKTFQAYLDDCHRRYSCAHCRA here?
A: 2.18

Q: Which protein stability index does the source give for SKPKTFQAYLDDCHRRYSCAHCAA here?
A: 3.07

Q: For SKPKTFQAYLDDCHRRYSCAHCGA, which protein stability index is on record?
A: 1.39

Q: For SKPKTFQAYLDDCHRRYSCAHCEA, which protein stability index is on record?
A: 2.09

Q: For SKPKTFQAYLDDCHRRYSCAHCLA, which protein stability index is on record?
A: 2.37

Q: Which protein stability index does the source give for SKPKTFQAYLDDCHRRYSCAHCMA here?
A: 2

Q: For SKPKTFQAYLDDCHRRYSCAHCQA, which protein stability index is on record?
A: 1.86

Q: With SKPKTFQAYLDDCHRRYSCAHCNA as the variant, how does the protein stability index read?
A: 2.91

Q: Which protein stability index does the source give for SKPKTFNAYLDDCHRRYSCAHCRA here?
A: 2.04

Q: For SKPKTFLAYLDDCHRRYSCAHCRA, which protein stability index is on record?
A: 1.76

Q: Which protein stability index does the source give for SKPKTFDAYLDDCHRRYSCAHCRA here?
A: 2.68

Q: With SKPKTFIAYLDDCHRRYSCAHCRA as the variant, how does the protein stability index read?
A: 1.4

Q: For SKPKTFEAYLDDCHRRYSCAHCRA, which protein stability index is on record?
A: 2.16

Q: With SKPKTFHAYLDDCHRRYSCAHCRA as the variant, how does the protein stability index read?
A: 2.2

Q: With SKPKTFQAYLDDCHRRYSCAHCRD as the variant, how does the protein stability index read?
A: 1.73

Q: For SKPKTFQAYLDDCHRRYSCAHCRN, which protein stability index is on record?
A: 2

Q: For YKPKTFQAYLDDCHRRYSCAHCRA, which protein stability index is on record?
A: 1.99

Q: With VKPKTFQAYLDDCHRRYSCAHCRA as the variant, how does the protein stability index read?
A: 1.38

Q: For AKPKTFQAYLDDCHRRYSCAHCRA, which protein stability index is on record?
A: 2.11

Q: With LKPKTFQAYLDDCHRRYSCAHCRA as the variant, how does the protein stability index read?
A: 3.27

Q: Which protein stability index does the source give for WKPKTFQAYLDDCHRRYSCAHCRA here?
A: 1.66

Q: For FKPKTFQAYLDDCHRRYSCAHCRA, which protein stability index is on record?
A: 1.67

Q: With SKPKTFQAYLDDCHRRYSCAHMRA as the variant, how does the protein stability index read?
A: 1.98

Q: With SKPKTFQAYLDDCHRRYSCAHWRA as the variant, how does the protein stability index read?
A: 1.77

Q: With SKPKTFQAYLDDCHRRYSCAHRRA as the variant, how does the protein stability index read?
A: 2.63

Q: Which protein stability index does the source give for SKPKTFQAYLDDCHRRYSCAHYRA here?
A: 2.17

Q: With SKPKTFQAYLDDCHRKYSCAHCRA as the variant, how does the protein stability index read?
A: 1.73

Q: Which protein stability index does the source give for SKPKTFQAYLDDCHRYYSCAHCRA here?
A: 1.83

Q: Which protein stability index does the source give for SKPKTFQAYLDDCHRDYSCAHCRA here?
A: 2.45

Q: With SKPKTFQAYLDDCHRLYSCAHCRA as the variant, how does the protein stability index read?
A: 2.33

Q: With SKPKTFQAYLDDCHRRYSCCHCRA as the variant, how does the protein stability index read?
A: 1.31

Q: Which protein stability index does the source give for SKPKTFQAYLDDCHRRYSCWHCRA here?
A: 3.14

Q: Which protein stability index does the source give for SKPKTFQAYLDDCHRRYSCDHCRA here?
A: 1.1

Q: Which protein stability index does the source give for SKPKTFQAYLEDCHRRYSCAHCRA here?
A: 2.59

Q: Which protein stability index does the source give for SKPKTFQAYLVDCHRRYSCAHCRA here?
A: 1.75

Q: Which protein stability index does the source give for SKPKTFQAYLDDMHRRYSCAHCRA here?
A: 2.79

Q: Which protein stability index does the source give for SKPKTFQAYLDDNHRRYSCAHCRA here?
A: 2.27

Q: Which protein stability index does the source give for SKPKTFQAYLDDFHRRYSCAHCRA here?
A: 2.1

Q: With SKPKTFQAYLDDLHRRYSCAHCRA as the variant, how does the protein stability index read?
A: 2.12

Q: Which protein stability index does the source give for SKPKTFQAYLDDPHRRYSCAHCRA here?
A: 1.68

Q: Which protein stability index does the source give for SKPKTFQAYLDDWHRRYSCAHCRA here?
A: 1.71

Q: Which protein stability index does the source give for SKPKTFQAYLDDCHRRYSCAACRA here?
A: 2.06

Q: Which protein stability index does the source give for SKPKTFQAYLDDCHRRYSCALCRA here?
A: 1.74

Q: With SKPKTFQRYLDDCHRRYSCAHCRA as the variant, how does the protein stability index read?
A: 1.88

Q: Which protein stability index does the source give for SKPKTFQQYLDDCHRRYSCAHCRA here?
A: 2.5

Q: For SKPKTFQPYLDDCHRRYSCAHCRA, which protein stability index is on record?
A: 2.62

Q: Which protein stability index does the source give for SKPKTFQAYLDDCHRRESCAHCRA here?
A: 2.66

Q: With SKPKTFQANLDDCHRRYSCAHCRA as the variant, how does the protein stability index read?
A: 2.17

Q: For SKPKTFQAALDDCHRRYSCAHCRA, which protein stability index is on record?
A: 2.19

Q: With SKPKTFQAMLDDCHRRYSCAHCRA as the variant, how does the protein stability index read?
A: 1.89

Q: For SKPKTFQAYLDNCHRRYSCAHCRA, which protein stability index is on record?
A: 2.12

Q: With SKPKTFQAYLDRCHRRYSCAHCRA as the variant, how does the protein stability index read?
A: 2.4

Q: For SKPKTFQAYLDECHRRYSCAHCRA, which protein stability index is on record?
A: 2.36

Q: For SKPKTFQAYLDACHRRYSCAHCRA, which protein stability index is on record?
A: 2.19

Q: With SKPKTFQAYLDWCHRRYSCAHCRA as the variant, how does the protein stability index read?
A: 1.67

Q: Which protein stability index does the source give for SKPKTFQAYLDCCHRRYSCAHCRA here?
A: 2.74

Q: With SKPKTFQAYLDFCHRRYSCAHCRA as the variant, how does the protein stability index read?
A: 1.7

Q: With SKPKTFQAYLDDCHVRYSCAHCRA as the variant, how does the protein stability index read?
A: 1.57

Q: With SKPKTFQAYLDDCHERYSCAHCRA as the variant, how does the protein stability index read?
A: 3.59

Q: With SKPKTFQAYLDDCHTRYSCAHCRA as the variant, how does the protein stability index read?
A: 2.48

Q: For SKPKTFQAYLDDCHLRYSCAHCRA, which protein stability index is on record?
A: 2.01

Q: With SKPKTFQAYLDDCHIRYSCAHCRA as the variant, how does the protein stability index read?
A: 2.25

Q: For SKYKTFQAYLDDCHRRYSCAHCRA, which protein stability index is on record?
A: 1.72

Q: For SKTKTFQAYLDDCHRRYSCAHCRA, which protein stability index is on record?
A: 1.92

Q: With SKCKTFQAYLDDCHRRYSCAHCRA as the variant, how does the protein stability index read?
A: 2.6

Q: For SKPKTFQAYLDDCHRRYDCAHCRA, which protein stability index is on record?
A: 1.5

Q: For SKPKTFQAYLDDCHRRYMCAHCRA, which protein stability index is on record?
A: 2.73
